Values of other authors as cited in article PMC4986992.

Biological target: Glycophorin A (GpATM) TM (Homo sapiens) (UniProt P02724)

- Kd: 1.2 pM
Substance: Glycophorin A (GpATM) TM (from UniProt P02724)
